Results taken from the domain aggregation screens of Martell et al. (2025).

experiment: soluble fraction after stress (log2 fold change); higher = more stays soluble; pooled small domains, quantitative proteomics; settings: stress: 50 degC
How it was run: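 Pooled custom libraries of small protein domains were measured in a high-throughput format, with quantitative proteomics as the read-out. Each library was stressed at 50°C. Aggregation propensity is given as the base-two logarithm of the fold change in how much of each protein stays soluble after the stress. Higher values mean a larger share of the protein remains in solution.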

| Sequence | soluble fraction (log2) |
| --- | --- |
| HMFDGYQWLKRDIIRGVYQPEEKLRMSLLTNRYGLGVGPLREALSQLVAEHLVTVVSQKGYRVAPM | -0.112 |
| HMQDVVERIKKYKQLFSITSEELSKRSGIPLGTLNKILSSSTKSIKTETLAAIAKGLDVSVSDLVGREK | 0.0602 |
| HMLEDYFKEEEYTEVLKIPKEYIKGFQYYLIEDAEFVNALRAKNKTMTLFLAKKLASDYIEIIRREQ | -0.208 |
| HMPSPEMLKETEKRKAEEIYRSQINLFIDDYHRLKGQYPLLEDIIDNKKDSIPIEILREISISILKNYFE | -0.242 |
| HMDSSSYSAKVGTLIQETRQARGMTQAQLAQALGTSQSAINRIEKGGQNISLDMLNRISEVLSSQIVTLNP | -0.0626 |
| HMKYFDRDLINYIQKTLAGKKIDFHEKIVPLIIELAGSDIRRVDEIIDMAEYSGKGMHVSEEMIRELAGDV | -0.815 |
| HMPDDHFIRGYVTAVLEQVLKVPSIQVEVERGVVILRGDLPGEERQELLDAVSRIHGVARVEYIPL | -0.0295 |
| HMHAQDTLMTRAGETRTVKILEIGLEEIKYRIWGLDDSPVIVIDKIDVKQIVFSNGEKMTIVQ | -1.44 |
| HMNAAYDEELDFIFSLSEKGKWEEAEAEIGLLLQKHPEDATLQRIGEWVTTQKILLRQQAVEDRIRS | -0.0763 |
| HMDDSVTFSEFVRMVDSGQVESVRITGNEVTGSDSTGNTFRTFVPPQYEGLVNRLVERDVAVTAEE | 0.0594 |
| HMINVGYKFKQIRENAGLTLKQVSAMSGLSVSFISQIERGVVDPSWSSLKKISAALNIKLKDLF | -1.78 |
| HMKALRNQDVVVGKPLAMAVYDQHGVLLLGRGHVVISESQRQQLLERGFSIDAEQLGRLRAAIEATQRV | -0.378 |
| HMNEVIIKNWSNAVGRNIKIKTKRGRPIFGRLLAINDQQLTIASKYMRGNATITVAREDVVSMSVS | -0.516 |
| HMVTVPNYSDPRQYVEWGNANGITINRAVGDTIASMSGRVQDVRDSNGNSVIGKKVKKGSTVTVYIYFLK | -0.00985 |
| HMRVVPEILERAVAVFEALGVDRLPSSTLADRLGYDSPEALADVLRPLGVRPKKYRDGKSTARGYLAADLG | -0.473 |
| HMFSAASSQISSYVRSVVDKAQTYEQAYEILAKNPLGFKLDALEDELFRIIANAEILGADDDE | -0.887 |
| HMNTISTLEITTKKDIRILDESELLKSKSSKNNIFNYLLASGDFNLLKDKLNEIDEFSDEIISYQLN | -0.611 |
| HMSNYFIEISKDSLARINDEIELDVLRETSDTIIISQEEKTNTISSFIKVLFERQIDILSIQNR | 0.000151 |
| HMSLPALSAEEQKIVDALHGTPKGVDDIIAETGISSGALLRSLTMLELKKVIVRLPGNRIAPK | -0.128 |

| Sequence | soluble fraction (log2) |
| --- | --- |
| HMGTHPGIDSGIISDILALKKELPTRSAAKIITMLTLAGKMEENSIHVKTVNRILYQYGYTRDTLS | -1.88 |
| HMDDATTQLADRLLDLRRKAGYSQEQLADLLGVSRQAISKWEGAQGRPEVDNVVKLAQIYRVSTDFILTGS | -0.552 |
| HMSKITNALLMMKLLSNGKVYSVKELSEELGVTERMVRNYKEQLEMSGYIIESFKGPGGGYFINKN | -1.61 |
| HMGLAALLQSGPVAGTVLSHQPGGKVVIAFQGQAYPLNLKGRTLQPGQSVLARMAGEQISLEVI | -0.289 |
| HMSKKAIVINLLKRPDGASLKDIMQATYWQAHSVRGFISGSLTKKMGLNVESFKRPDGERAYRIN | -2.3 |
| HMGYPYDTVTTAKVNLRAKRSTSSDILKKIPEGATVTVKGVTGTFASVDYNGTSGYVKVDYLV | 0.069 |
| HMVDWTFPVLVKDVVMMGRYGHMGFLRIPGKKDFESVDNALAKVGMVEYAKQQIGELSGGQR | -0.0772 |
| HMKGHQASTTWISERVKDIIKEDPTLGARKLQKRLEIHYNIELSYFKVWSGKNLQWMIFMVL | 0.022 |
| HMNGQITPSRAKEIALGHAGVSEGSANFKKIKLDNKNGRPAYEIEFIANNSRYEFEINASNGSIIKFNK | 0.345 |
| HMKGYIGESKARNIALKKAPGASITKFEFDKDDGIAVYEVELRKGIYEYELKINAVTGAIIEFEKDIE | -1.46 |
| HMIDSDENERIKELIKALISETLKSRGVSPEVISDIKERVDRLHNEELPRFAAELKELISRN | 0.119 |
| HMDQPVIDVREFGARGDGKQDDAPAIQAAVRLAEQLGGGRVVVPATREFYLLGSTIRIRGHHVTLTGPGAR | 0.0155 |
| HMLSAGTTEQRLAMLQYQWEKQSETYSALGPNNGVVTLGQIRNTMAKIAELAGFKDAAQFWMPVPMDYDV | -0.323 |
| HMAGISQGLAENVERRITTLLREQKEVPVHDIDFPGISRETVGQVLHQMVQEEKLLLDDGMISLSPNQ | 0.143 |
| HMEEVVIPDLAGLTEEEATKVLMAKELKLKVSGSQHSDIEKGLIISQDPPAGEKGAKNSQVAVVTSSG | 0.103 |
| HMAADDGSARAEQLREMYSLISGLDKLDKAIILMWLDERSYDEIAEVTGFTRNNVATRLHRIKSRLARQSN | -0.783 |
| HMTQQNRDELYRRMIDAGWDQLVRNGIRSLRVEQVAAAVGIAKGTFYHFFDSKDDFIYAMLMENRQ | -3.07 |
| HMGRRDLSWQPAAGGVSIDGLKAGEAWTLFGLNGRILKQGYAPEGQMSLAVNAGLFVLRGAESGVIRIAVA | -1.25 |
| HMQLVGSSAAVLIPAPAGGLGKIRLEFRGQTIDLIAKATDGGALIEGGAVTIVDVRDGQADVSV | -0.552 |
